# Laboratory results published in patent publication US20250376501A1.
# Legend:
# Assay in all cases: Gator BLI, hTSLP mutant from CHO cells against 3H10-biotin
# [1] = biological target: hTSLP-K32A (human) (UniProt Q969D9)
# [2] = biological target: hTSLP-R127A (human) (UniProt Q969D9)
# [3] = biological target: hTSLP-R55A (human) (UniProt Q969D9)
# [4] = biological target: hTSLP-K21A (human) (UniProt Q969D9)
# [5] = biological target: hTSLP-L133A (human) (UniProt Q969D9)
# [6] = biological target: hTSLP-D18A (human) (UniProt Q969D9)
# Sequence of hTSLP-D18A (human) (Q969D9 29-159 R127A/R130A): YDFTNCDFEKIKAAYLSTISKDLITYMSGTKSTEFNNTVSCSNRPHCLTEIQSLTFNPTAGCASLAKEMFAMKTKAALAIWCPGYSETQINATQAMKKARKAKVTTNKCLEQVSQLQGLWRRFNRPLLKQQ
# [7] = biological target: hTSLP-R131A (human) (UniProt Q969D9)
# Sequence of hTSLP-R131A (human) (Q969D9 29-159 R127A/R130A): as above
# [8] = biological target: hTSLP-S43A (human) (UniProt Q969D9)
# Sequence of hTSLP-S43A (human) (Q969D9 29-159 R127A/R130A): as above
# [9] = biological target: hTSLP-E20A (human) (UniProt Q969D9)
# Sequence of hTSLP-E20A (human) (Q969D9 29-159 R127A/R130A): as above
# [10] = biological target: hTSLP-N130A (human) (UniProt Q969D9)
# Sequence of hTSLP-N130A (human) (Q969D9 29-159 R127A/R130A): as above
# [11] = biological target: hTSLP-S28A (human) (UniProt Q969D9)
# Sequence of hTSLP-S28A (human) (Q969D9 29-159 R127A/R130A): as above
# [12] = biological target: hTSLP-K23A (human) (UniProt Q969D9)
# Sequence of hTSLP-K23A (human) (Q969D9 29-159 R127A/R130A): as above
# [13] = biological target: hTSLP-L27A (human) (UniProt Q969D9)
# Sequence of hTSLP-L27A (human) (Q969D9 29-159 R127A/R130A): as above
# [14] = biological target: hTSLP-K135A (human) (UniProt Q969D9)
# Sequence of hTSLP-K135A (human) (Q969D9 29-159 R127A/R130A): as above
# Sequence of hTSLP-L133A (human) (Q969D9 29-159 R127A/R130A): as above
# Sequence of hTSLP-R127A (human) (Q969D9 29-159 R127A/R130A): as above
# Sequence of hTSLP-R55A (human) (Q969D9 29-159 R127A/R130A): as above
# Sequence of hTSLP-K21A (human) (Q969D9 29-159 R127A/R130A): as above
# Sequence of hTSLP-K32A (human) (Q969D9 29-159 R127A/R130A): as above
binder,measurement,setting,value
"3H10-biotin protein (designed binder, biotin (site not stated)) GSHMDLGKKLLEAAWAGRDDEVRILMANGADVNAGDASGDTPLHLAAFSGHLEIVEVLLKHGADVNAEDLLGMTPLHLAAPFGHLEIVEVLLKHGADVNAAARNNGKTPLHLAAFVGHLEIVEVLLKNGADVNAQDKFGKTAFDISIDNGNEDLAEILQKLNG",Decreased fold in binding affinity compared to wild-type TSLP,[1],1.2 fold
same,Decreased fold in binding affinity compared to wild-type TSLP,[2],1.8 fold
same,Decreased fold in binding affinity compared to wild-type TSLP,[3],0.5 fold
same,Decreased fold in binding affinity compared to wild-type TSLP,[4],11.9 fold
same,Decreased fold in binding affinity compared to wild-type TSLP,[5],2.05 fold
same,Decreased fold in binding affinity compared to wild-type TSLP,[6],7.9 fold
same,Decreased fold in binding affinity compared to wild-type TSLP,[7],2.1 fold
same,Decreased fold in binding affinity compared to wild-type TSLP,[8],5 fold
same,Decreased fold in binding affinity compared to wild-type TSLP,[9],6.1 fold
same,Decreased fold in binding affinity compared to wild-type TSLP,[10],2.2 fold
same,Decreased fold in binding affinity compared to wild-type TSLP,[11],5.1 fold
same,Decreased fold in binding affinity compared to wild-type TSLP,[12],2.4 fold
same,Decreased fold in binding affinity compared to wild-type TSLP,[13],9.3 fold
same,Decreased fold in binding affinity compared to wild-type TSLP,[14],1.7 fold
